Positions count from the first letter of the chain named. In names and notes the source's numbering stands.
T1: Angiopoietin-1 (UniProt Q15389 16-498)
T1 construct: recombinant Ang1; the residue numbers printed for Ang1 (Gln415, Asp450, Leu471, Tyr478) come from the cited structure 4K0V; also called Ang1; source: recombinant
T1 sequence (looked up): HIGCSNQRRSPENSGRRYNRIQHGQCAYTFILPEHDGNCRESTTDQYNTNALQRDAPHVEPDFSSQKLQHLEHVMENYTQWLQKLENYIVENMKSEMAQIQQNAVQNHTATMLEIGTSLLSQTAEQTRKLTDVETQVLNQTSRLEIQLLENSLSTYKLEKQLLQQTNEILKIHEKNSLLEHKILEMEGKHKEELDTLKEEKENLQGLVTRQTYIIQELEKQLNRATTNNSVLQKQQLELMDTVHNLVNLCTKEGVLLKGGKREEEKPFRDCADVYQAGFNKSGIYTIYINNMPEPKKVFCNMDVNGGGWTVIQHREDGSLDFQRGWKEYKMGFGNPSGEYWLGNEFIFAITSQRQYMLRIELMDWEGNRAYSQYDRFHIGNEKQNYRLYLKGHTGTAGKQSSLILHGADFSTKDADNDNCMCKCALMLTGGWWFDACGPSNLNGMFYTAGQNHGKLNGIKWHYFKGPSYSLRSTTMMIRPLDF

T2: Angiopoietin-2 (UniProt O15123 19-496)
T2 construct: recombinant Ang2; the residue numbers printed for Ang2 (Asp448, Phe469, Ser480) come from the cited structure 2GY7; also called Ang2; source: recombinant
T2 sequence (looked up): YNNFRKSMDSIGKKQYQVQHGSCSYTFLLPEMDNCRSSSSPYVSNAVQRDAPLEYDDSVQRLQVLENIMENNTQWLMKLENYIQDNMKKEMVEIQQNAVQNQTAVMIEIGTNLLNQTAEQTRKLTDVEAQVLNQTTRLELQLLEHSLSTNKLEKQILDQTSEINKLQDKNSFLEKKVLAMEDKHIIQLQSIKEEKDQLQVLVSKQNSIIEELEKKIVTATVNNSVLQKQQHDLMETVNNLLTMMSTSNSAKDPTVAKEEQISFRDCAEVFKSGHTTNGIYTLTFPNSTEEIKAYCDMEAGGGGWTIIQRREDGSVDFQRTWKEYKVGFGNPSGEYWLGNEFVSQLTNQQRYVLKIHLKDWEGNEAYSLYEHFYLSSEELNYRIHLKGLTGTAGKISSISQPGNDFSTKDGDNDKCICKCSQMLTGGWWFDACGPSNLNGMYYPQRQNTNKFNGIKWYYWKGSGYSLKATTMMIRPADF

B1: Tie2 ectodomain-Fc Arg167Ala/His168Ala (Fc fusion, human, UniProt Q02763 23-442, looked up)
chain: AMDLILINSLPLVSDAETSLTCIASGWRPHEPITIGRDFEALMNQHQDPLEVTQDVTREWAKKVVWKREKASKINGAYFCEGRVRGEAIRIRTMKMRQQASFLPATLTMTVDKGDNVNISFKKVLIKEEDAVIYKNGSFIHSVPAAEVPDILEVHLPHAQPQDAGVYSARYIGGNLFTSAFTRLIVRRCEAQKWGPECNHLCTACMNNGVCHEDTGECICPPGFMGRTCEKACELHTFGRTCKERCSGQEGCKSYVFCLPDPYGCSCATGWKGLQCNEACHPGFYGPDCKLRCSCNNGEMCDRFQGCLCSPGWQGLQCEREGIQRMTPKIVDLPDHIEVNSGKFNPICKASGWPLPTNEEMTLVKPDGTVLHPKDFNHTDHFSVAIFTIHRILPPDSGVWVCSVNTVAGMVEKPFNISVK
notes: signal peptide in the construct; Tie2 ectodomain, human, residues 1-442; also called Arg167Ala/His168Ala Tie2 ectodomain mutant; double substitution; source: Hek293, transfected, purified from culture medium (nickel chromatography); not shown: Fc (fragment of human Fc immunoglobulin domain, after a GS4 linker), C-terminal, kept
B2: R5 Tie2 ectodomain-Fc (Phe161Ile, deletion of Arg167 and His168, Ser164Leu, Pro171Ser) (Fc fusion, human, UniProt Q02763 23-442, looked up)
chain: AMDLILINSLPLVSDAETSLTCIASGWRPHEPITIGRDFEALMNQHQDPLEVTQDVTREWAKKVVWKREKASKINGAYFCEGRVRGEAIRIRTMKMRQQASFLPATLTMTVDKGDNVNISFKKVLIKEEDAVIYKNGSIIHLVPEVSDILEVHLPHAQPQDAGVYSARYIGGNLFTSAFTRLIVRRCEAQKWGPECNHLCTACMNNGVCHEDTGECICPPGFMGRTCEKACELHTFGRTCKERCSGQEGCKSYVFCLPDPYGCSCATGWKGLQCNEACHPGFYGPDCKLRCSCNNGEMCDRFQGCLCSPGWQGLQCEREGIQRMTPKIVDLPDHIEVNSGKFNPICKASGWPLPTNEEMTLVKPDGTVLHPKDFNHTDHFSVAIFTIHRILPPDSGVWVCSVNTVAGMVEKPFNISVK
notes: signal peptide in the construct; Tie2 ectodomain, human, residues 1-442, variant from directed evolution; also called R5-Fc; evolved ectodomain; source: Hek293, transfected, purified from culture medium (nickel chromatography); not shown: Fc (fragment of human Fc immunoglobulin domain, after a GS4 linker), C-terminal, kept
B3: R5 Tie2 ectodomain-Fc with Ser171 reverted back to Pro (Fc fusion, human, UniProt Q02763 23-442, looked up)
chain: B2 chain with S147P
notes: signal peptide in the construct; Tie2 ectodomain, human, residues 1-442; also called evolved ectodomain in which Ser171 was reverted back to Pro; source: Hek293, transfected, purified from culture medium (nickel chromatography); not shown: Fc (fragment of human Fc immunoglobulin domain, after a GS4 linker), C-terminal, kept
B4: monomeric wild-type Tie2 ectodomain (domain or fragment, human, UniProt Q02763 23-748, looked up)
chain: AMDLILINSLPLVSDAETSLTCIASGWRPHEPITIGRDFEALMNQHQDPLEVTQDVTREWAKKVVWKREKASKINGAYFCEGRVRGEAIRIRTMKMRQQASFLPATLTMTVDKGDNVNISFKKVLIKEEDAVIYKNGSFIHSVPRHEVPDILEVHLPHAQPQDAGVYSARYIGGNLFTSAFTRLIVRRCEAQKWGPECNHLCTACMNNGVCHEDTGECICPPGFMGRTCEKACELHTFGRTCKERCSGQEGCKSYVFCLPDPYGCSCATGWKGLQCNEACHPGFYGPDCKLRCSCNNGEMCDRFQGCLCSPGWQGLQCEREGIQRMTPKIVDLPDHIEVNSGKFNPICKASGWPLPTNEEMTLVKPDGTVLHPKDFNHTDHFSVAIFTIHRILPPDSGVWVCSVNTVAGMVEKPFNISVKVLPKPLNAPNVIDTGHNFAVINISSEPYFGDGPIKSKKLLYKPVNHYEAWQHIQVTNEIVTLNYLEPRTEYELCVQLVRRGEGGEGHPGPVRRFTTASIGLPPPRGLNLLPKSQTTLNLTWQPIFPSSEDDFYVEVERRSVQKSDQQNIKVPGNLTSVLLNNLHPREQYVVRARVNTKAQGEWSEDLTAWTLSDILPPQPENIKISNITHSSAVISWTILDGYSISSITIRYKVQGKNEDQHVDVKIKNATITQYQLKGLEPETAYQVDIFAENNIGSSNPAFSHELVTLPESQAPADLGGGKMLL
notes: wild-type Tie2 ectodomain, monomeric form; also called Wt monomer; monomeric Tie2
B5: Tie2 ectodomain-Fc Arg167Ala/His168Ala/Glu169Ala (Fc fusion, human, UniProt Q02763 23-442, looked up)
chain: B1 chain with E147A
notes: signal peptide in the construct; Tie2 ectodomain, human, residues 1-442; also called triple alanine substitution of Arg167, His168 and Glu169; source: Hek293, transfected, purified from culture medium (nickel chromatography); not shown: Fc (fragment of human Fc immunoglobulin domain, after a GS4 linker), C-terminal, kept
B6: wild-type Tie2 ectodomain-Fc (Fc fusion, human, UniProt Q02763 23-442, looked up)
chain: B1 chain with A145R, A146H
notes: signal peptide in the construct; Tie2 ectodomain, human, residues 1-442; Order on the chain: Tie2 1-442, GS4 linker, human Fc fragment, His6; also called Wt; Wt-Tie2; source: Hek293, transfected, purified from culture medium (nickel chromatography); not shown: Fc (fragment of human Fc immunoglobulin domain, after a GS4 linker), C-terminal, kept
B7: Tie2 ectodomain-Fc H163A (Fc fusion, human, UniProt Q02763 23-442, looked up)
chain: B1 chain with H141A, A145R, A146H
notes: signal peptide in the construct; Tie2 ectodomain, human, residues 1-442; source: Hek293, transfected, purified from culture medium (nickel chromatography); not shown: Fc (fragment of human Fc immunoglobulin domain, after a GS4 linker), C-terminal, kept
B8: Tie2 ectodomain-Fc H168A (Fc fusion, human, UniProt Q02763 23-442, looked up)
chain: B1 chain with A145R
notes: signal peptide in the construct; Tie2 ectodomain, human, residues 1-442; also called Tie2(H168A); His168Ala; source: Hek293, transfected, purified from culture medium (nickel chromatography); not shown: Fc (fragment of human Fc immunoglobulin domain, after a GS4 linker), C-terminal, kept
B9: Tie2 ectodomain-Fc R167A (Fc fusion, human, UniProt Q02763 23-442, looked up)
chain: B1 chain with A146H
notes: signal peptide in the construct; Tie2 ectodomain, human, residues 1-442; also called Arg167Ala; source: Hek293, transfected, purified from culture medium (nickel chromatography); not shown: Fc (fragment of human Fc immunoglobulin domain, after a GS4 linker), C-terminal, kept
B10: Tie2 ectodomain-Fc V165A (Fc fusion, human, UniProt Q02763 23-442, looked up)
chain: B1 chain with V143A, A145R, A146H
notes: as for B7
B11: Tie2 ectodomain-Fc S164A (Fc fusion, human, UniProt Q02763 23-442, looked up)
chain: B1 chain with S142A, A145R, A146H
notes: as for B7
B12: Tie2 ectodomain-Fc E169A (Fc fusion, human, UniProt Q02763 23-442, looked up)
chain: B1 chain with A145R, A146H, E147A
notes: signal peptide in the construct; Tie2 ectodomain, human, residues 1-442; also called Glu169Ala; source: Hek293, transfected, purified from culture medium (nickel chromatography); not shown: Fc (fragment of human Fc immunoglobulin domain, after a GS4 linker), C-terminal, kept
B13: Tie2 ectodomain-Fc I162A (Fc fusion, human, UniProt Q02763 23-442, looked up)
chain: B1 chain with I140A, A145R, A146H
notes: as for B7

Each binder was assayed against T1, Angiopoietin-1 (assay: ELISA; recombinant Ang1 or Ang2 immobilised on Maxisorp plates, blocked with TBS, 0.1% Triton-X100, 5% milk powder; Tie2 ectodomain proteins bound for 1 h; detected with anti-Tie2 ectodomain antibodies; EC50 = concentration of ectodomain for 50% of maximal binding). Settings: both partners purified.

binding result	Binder
binds	B1

What follows are binders tested against T2, Angiopoietin-2 in the same assay as above. Settings: both partners purified.

EC50 [nM]	binding result	Binder
3.4	–	B2
–	binds	B3
22.7	–	B4
–	binds	B1
–	binds	B5

Target: T1, Angiopoietin-1
Assay: as above
Settings: both partners purified
Remark: another data set of the same source

EC50 [nM]	Binder
0.66	B6
1.38	B7
26.4	B8
26.6	B9
14.3	B10
0.44	B11
9	B12
6.38	B13

Target: T2, Angiopoietin-2
Assay: as above
Settings: both partners purified
Remark: another data set of the same source

EC50 [nM]	Binder
1.37	B6
5.88	B7
0.5	B8
10.3	B9
77.7	B10
14.4	B11
3.94	B12
23.1	B13

Reference: publication PMC8294587, “Intrinsic differences in the mechanisms of Tie2 binding to angiopoietins exploited by directed evolution to create an Ang2-selective ligand trap” (The Journal of Biological Chemistry, 2021)
